From IntAct's records for PubMed 15507434

B1: Microphthalmia-associated transcription factor (Homo sapiens), O75030 (parent)
chain: MQSESGIVPDFEVGEEFHEEPKTYYELKSQPLKSSSSAEHPGASKPPISSSSMTSRILLRQQLMREQMQEQERREQQQKLQAAQFMQQRVPVSQTPAINVSVPTTLPSATQVPMEVLKVQTHLENPTKYHIQQAQRQQVKQYLSTTLANKHANQVLSLPCPNQPGDHVMPPVPGSSAPNSPMAMLTLNSNCEKEGFYKFEEQNRAESECPGMNTHSRASCMQMDDVIDDIISLESSYNEEILGLMDPALQMANTLPVSGNLIDLYGNQGLPPPGLTISNSCPANLPNIKRELTACIFPTESEARALAKERQKKDNHNLIERRRRFNINDRIKELGTLIPKSNDPDMRWNKGTILKASVDYIRKLQREQQRAKELENRQKKLEHANRHLLLRIQELEMQARAHGLSLIPSTGLCSPDLVNRIIKQEPVLENCSQDLLQHHADLTCTTTLDLTDGTITFNNNLGTGTEANQAYSVPTKMGSKLEDILMDDTLSPVGVTDPLLSSVSPGASKTSSRRSSMSMEETEHTC

Variants of: B1
Details: with tfeb_human TFEB

Variant | effect of a mutation on the interaction
K289R;K423R | with no effect

Variants of: B1
Details: with tfe3_human TFE3, P19532
tfe3_human TFE3, P19532, sequence (P19532 whole entry): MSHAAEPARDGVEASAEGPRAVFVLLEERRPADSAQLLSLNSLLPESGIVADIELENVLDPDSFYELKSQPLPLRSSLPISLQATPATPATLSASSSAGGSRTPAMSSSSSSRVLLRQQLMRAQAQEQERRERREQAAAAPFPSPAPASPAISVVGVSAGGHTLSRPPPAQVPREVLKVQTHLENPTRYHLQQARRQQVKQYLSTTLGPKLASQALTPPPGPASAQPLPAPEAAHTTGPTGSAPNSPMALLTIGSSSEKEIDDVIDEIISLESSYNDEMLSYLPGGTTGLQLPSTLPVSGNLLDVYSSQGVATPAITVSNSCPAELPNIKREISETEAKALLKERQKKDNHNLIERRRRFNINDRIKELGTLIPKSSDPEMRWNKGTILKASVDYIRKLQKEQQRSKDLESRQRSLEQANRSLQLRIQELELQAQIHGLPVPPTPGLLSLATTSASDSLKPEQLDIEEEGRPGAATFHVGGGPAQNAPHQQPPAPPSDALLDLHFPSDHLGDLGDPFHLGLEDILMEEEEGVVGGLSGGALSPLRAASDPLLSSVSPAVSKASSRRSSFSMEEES

Variant | effect of a mutation on the interaction
K289R;K423R | with no effect
